Measurements as given in US20260201033A1 (LTZ THERAPEUTICS, published 2026).

Experiments:
[1] = biological target: T1, Human C-type lectin domain family 5 member A (CLEC5A), endogenous on human monocytes and M0 macrophages (human, UniProt Q9NY25 1-188); assay: flow cytometry on human M0 macrophages, anti-human IgG PE
T1 construct: Endogenous CLEC5A on primary human monocytes and monocyte-derived M0 macrophages; also called MDL-1; M0 macrophages (CLEC5A+) cells
T1 sequence: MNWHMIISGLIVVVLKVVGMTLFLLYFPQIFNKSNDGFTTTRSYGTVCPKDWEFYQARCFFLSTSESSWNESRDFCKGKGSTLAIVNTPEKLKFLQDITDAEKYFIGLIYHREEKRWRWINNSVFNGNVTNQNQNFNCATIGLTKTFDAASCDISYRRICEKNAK

[2] = biological target: T2, mouse CLEC5A (R&D Systems, Cat #: 8438-CL-050) (mouse, UniProt Q9R007 26-190, limits assumed); assay: ELISA, plate coated with mouse CLEC5A
T2 construct: Bought protein; also called recombinant mouse CLEC5A protein
T2 sequence: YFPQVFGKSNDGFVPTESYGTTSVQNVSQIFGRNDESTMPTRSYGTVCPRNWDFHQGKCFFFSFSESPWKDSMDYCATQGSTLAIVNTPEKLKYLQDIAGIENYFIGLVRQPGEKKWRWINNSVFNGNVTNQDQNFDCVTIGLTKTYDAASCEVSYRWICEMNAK

[3] = biological target: T3, Human CLEC5A His Tag protein (ACROBiosystems, Cat #: CLA-H5243) (human, UniProt Q9NY25 28-188, limits assumed); assay: ELISA, plate coated with human CLEC5A
T3 construct: Bought protein with a His tag; also called recombinant human CLEC5A protein
T3 sequence: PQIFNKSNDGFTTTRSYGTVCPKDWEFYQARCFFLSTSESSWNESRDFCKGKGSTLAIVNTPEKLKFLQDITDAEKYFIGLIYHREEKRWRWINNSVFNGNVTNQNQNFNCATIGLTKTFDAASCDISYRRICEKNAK

[4] = biological target: T4, recombinant human CLEC5A, His Tag (ACROBiosystems, Cat #: NC1-H52H4) (human, UniProt Q9NY25 28-188); assay: BLI, antibody 10 ug/ml captured on anti-human IgG Fc probe, analyte hCLEC5a; table row hCLEC5a 3.12 nM; all four rows print the same value
T4 construct: Analyte of the BLI assay; Its catalogue number differs from that of the ELISA antigen; also called human CLEC5A (BLI analyte)
T4 sequence: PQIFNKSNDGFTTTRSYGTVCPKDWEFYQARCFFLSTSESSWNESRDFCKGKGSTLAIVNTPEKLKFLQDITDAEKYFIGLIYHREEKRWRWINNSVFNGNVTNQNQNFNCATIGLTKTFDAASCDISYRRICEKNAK

[5] = biological target: T4, recombinant human CLEC5A, His Tag …; assay: BLI, antibody 10 ug/ml captured on anti-human IgG Fc probe, analyte hCLEC5a; table row hCLEC5a 1.56 nM; all four rows print the same value
[6] = biological target: T4, recombinant human CLEC5A, His Tag …; assay: BLI, antibody 10 ug/ml captured on anti-human IgG Fc probe, analyte hCLEC5a; table row hCLEC5a 6.25 nM; all four rows print the same value
[7] = biological target: T4, recombinant human CLEC5A, His Tag …; assay: BLI, antibody 10 ug/ml captured on anti-human IgG Fc probe, analyte hCLEC5a; table row hCLEC5a 0.78 nM; all four rows print the same value
[8] = biological target: T5, CD79b on Ramos cells and on endogenous B cells of human PBMCs (human, UniProt P40259 29-229); assay: cell-based or functional assay
T5 sequence (looked up): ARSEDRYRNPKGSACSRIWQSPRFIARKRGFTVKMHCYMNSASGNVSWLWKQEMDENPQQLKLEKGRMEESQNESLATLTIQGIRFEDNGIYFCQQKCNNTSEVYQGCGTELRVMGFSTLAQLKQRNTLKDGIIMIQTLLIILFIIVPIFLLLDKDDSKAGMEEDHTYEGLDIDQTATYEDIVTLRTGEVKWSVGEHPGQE

[9] = biological target: T5, CD79b on Ramos cells and on endogenous …; assay: cell-based or functional assay; remark: listed apart in the source
[10] = biological target: T5, CD79b on Ramos cells and on endogenous …; assay: cell-based or functional assay; remark: listed apart in the source
[11] = biological target: T5, CD79b on Ramos cells and on endogenous …; assay: cell-based or functional assay; remark: listed apart in the source
[12] = biological target: T5, CD79b on Ramos cells and on endogenous …; assay: flow cytometry on Ramos cells (CD79b+), anti-human IgG PE, MFI (PE)

B1: 6A5, chimeric rabbit/human IgG1 anti-CLEC5A antibody (Fc-silenced) (antibody, V domains shown)
VH: QQQLEESGGGLVKPGGTLTLTCTASGFSFSSSYYMCWVRQAPGKGLELIACIYSSSGRTWYATWVNGRFTISRSTSLNTVDLKMTSLTAADTATYFCARSYAGYGGYGYAYFNLWGPGTLVTVSS
VL: DIVMTQTPASVEAGVGGTVTIKCQASEDIYSSLAWYQQKAGQRPKLLIYDASTLASGVPSRFKGSGSGTEYTLTISGVQPDDAATYYCQNYYDSTGSGYGAAFGGGTEVVVK
notes: also called ch6A5
EC50 [1]: 9800 pM | EC50 [2]: 120 pM | EC50 [3]: 310 pM

B2: 13E6, chimeric rabbit/human IgG1 anti-CLEC5A antibody (Fc-silenced) (antibody, V domains shown)
VH: QSLEESGGDLVKPGGTLTLTCTASGFSFSSSYWLCWVRQAPGKGLEWIACIYGGSSRGTYYASWAKGRFTISKTSSTTVTLQMTSLTAADTATYFCASHTYTYPRFSPYFNLWGPGTLVSVSS
VL: AFEMTQTPASVSPAVGGTVSINCQASEDIESSLAWYQQKPGQPPKLLIYDASDLESGVPSRFKGSGSGTEYTLTISGVQPADAATYFCQSAYYTGSADNTFGGGTEVVVK
notes: also called ch13E6
EC50 [1]: 2570 pM | EC50 [3]: 610 pM

B3: DX244, reference anti-CLEC5A antibody (antibody, human IgG1, V domains shown)
VH: QIQLVQSGPELKKPGETVKISCKASGYTFTIYAMNWVKQAPGKGLEWMGWINTDTGEPTYADDFKGRFAFSLETSASTAYLQINNLKNEDMATYFCARSSEVFYDYRFDYWGQGTALTVSS
VL: DIQMTQSPSSLSASLGERVSLTCRASQDIGSSLNWLQQEPDGTIKRLIYATSNLDSGVPKRFSGSRSGSDYSLTISSLESEDFVHYYCLQYASSPFTFGSGTKLEIKR
notes: also called benchmark DX244
EC50 [1]: 2800 pM

B4: 7G10, chimeric rabbit/human IgG1 anti-CLEC5A antibody (Fc-silenced) (antibody, V domains shown)
VH: QQQLEESGGGLVKPGGTLTLTCKASGFSFSSGYDMCWVRQAPGKGLEWIACIYGGRSDNVYYARWAKGRFTISKTSSTTVTLQMTSLTAADTATYFCARDYLYRGYIGGGYGRSNLWGPGTLVTVSS
VL: DVVMTQTPASVSAAVGGTVTINCRASEDIENCLAWYQQKPGQPPKLLIYQASKLPSGVPSRFSGSGSGTEYTLTISDLEPDDGATYYCQNPDYMRNTDNLFGGGTEVVVK
notes: also called ch7G10
EC50 [1]: 2060 pM | EC50 [3]: 160 pM

B5: 14A2, chimeric rabbit/human IgG1 anti-CLEC5A antibody (Fc-silenced) (antibody, V domains shown)
VH: QSLEESGGGLVKPEGSLTLTCKASGFTLSSYYYMCWVRQAPGKGLEWIACIYAGSSGTTVYASWAKGRFTISKTSSTTVTLQMTSLTAADTATYLCARKLGDVGYGHTTYFNLWGPGTLVTVSS
VL: ALVMTQTPSSVSAAVGGTVTIKCQASQNIYSTLAWYQQKPGQPPKLLMFDASDLASGVPSRFKGSGSGTEYTLTISDLEPADAATYFCQTYYDSGSDDLNAFGGGTEVVVK
notes: also called ch14A2
EC50 [1]: 3990 pM | EC50 [2]: 184 pM

B6: 9E11, chimeric rabbit/human IgG1 anti-CLEC5A antibody (Fc-silenced) (antibody, V domains shown)
VH: QSLEESGGGLVQPEGSLTLTCTASGFDLNNYYYMCWVRQAPGKGLEWIACTHAGSSSSSYYARWAKGRFTISKTSSTTVTLQMTSLTAADTATYFCARHDRDYDDMDLWGPGTLVTVSS
VL: NIVMTQTTSPVSAVVGGTITINCQASQSIEYGYLSWYQQKPGQPPKLLIFYASKLASGVPSRFSGSGSGTQFTLTISGVQPDDAATYFCLYGYFDDYSGAAFGGGTEVVVK
notes: also called ch9E11
EC50 [1]: 1590 pM

B7: 3A7, chimeric rabbit/human IgG1 anti-CLEC5A antibody (Fc-silenced) (antibody, V domains shown)
VH: QSLEESGGDLVKPGASLTLTCTASGFSFSGMYWICWVRQAPGKGLEWIACIYTGSSTTGYASWAKGRFTISKTSSTTVTLQMTSLTAADTATHFCASPYGDSSHYRGLNLWGPGTLVTVSS
VL: AVVMTQTPASVEAAVGGTVTINCQASQRINNYLSWFQQKPGQPPKLLIYGAATLASGVPSRFKGSGSGTEYTLTISDLEPADAATYYCQCTYGIPSSNYGFGGGTEVVVK
notes: also called ch3A7
Kd [4]: 63.1 pM | koff [4]: 8.96e-05 s⁻¹ | kon [4]: 1.42e+06 M⁻¹ s⁻¹ | Kd [5]: 63.1 pM | koff [5]: 8.96e-05 s⁻¹ | kon [5]: 1.42e+06 M⁻¹ s⁻¹ | Kd [6]: 63.1 pM | koff [6]: 8.96e-05 s⁻¹ | kon [6]: 1.42e+06 M⁻¹ s⁻¹ | Kd [7]: 63.1 pM | koff [7]: 8.96e-05 s⁻¹ | kon [7]: 1.42e+06 M⁻¹ s⁻¹ | EC50 [1]: 960 pM | EC50 [3]: 710 pM

B8: CD79b/5C7 (2+2 A) Fc-optimized (bispecific antibody, human IgG1, kappa)
heavy: EQQLVETGGGLIQPGGSLRLSCAASGFTINIDYWISWVRQAPGKGLEWIGIIDPGDGTTYFAIWVSGRFTISFDNSKNTVYLQMNSLRAEDTAVYFCVREFSASAYQYDLWGPGTLVTVSSASTKGPSVFPLAPSSKSTSGGTAALGCLVKDYFPEPVTVSWNSGALTSGVHTFPAVLQSSGLYSLSSVVTVPSSSLGTQTYICNVNHKPSNTKVDKKVEPKSCDKTHTCPPCPAPELLAGPSVFLFPPKPKDTLMISRTPEVTCVVVDVSHEDPEVKFNWYVDGVEVHNAKTKPREEQYNSTYRVVSVLTVLHQDWLNGKEYKCKVSNKALPLPEEKTISKAKGQPREPQVYTLPPSRDELTKNQVSLTCLVKGFYPSDIAVEWESNGQPENNYKTTPPVLDSDGSFFLYSKLTVDKSRWQQGNVFSCSVMHEALHNHYTQKSLSLSPGK
light: ELVMTQSPATLSVSPGERATLSCRASEDIENYLAWYQQKPGQPPRLLIYRASTLSSGVPARFSGSGSGTEFTLTISSLQSEDFAVYYCQQGYRNSNVDNPFGGGTKVEIKRTVAAPSVFIFPPSDEQLKSGTASVVCLLNNFYPREAKVQWKVDNALQSGNSQESVTEQDSKDSTYSLSSTLTLSKADYEKHKVYACEVTHQGLSSPVTKSFNRGECGGGGSGGGGSGGGGSDIQMTQSPSSLSASVGDRVTITCQASESVDRNNRLAWFQQKPGKPPKLLIYTTSTLASGVPSRFSGSGSGTDFTLTISSLQPEDVATYYCAGYRGAHTDGDAFGCGTKVEIKGGGGSGGGGSGGGGSGGGGSEQQLVESGGGLVKPGGSLRLSCAASGFSFSRSSYMCWVRQAPGKCLEWIGCLSVGDGHTYYASWAKGRFTISKDSAKNSVYLQMNSLRAEDTAVYFCARAPSYSGDGGHGYDLWGPGTLVTVSS
IC50 (nM), Ramos cell killing by PBMCs (test 2), Donor 234 [8]: 0.0675 nM | IC50 (nM), Ramos cell killing by M0 macrophages, Donor 100 [9]: 0.002 nM | IC50 (nM), Ramos cell killing by M0 macrophages, Donor 159 [9]: 0.001 nM | IC50 (nM), Ramos cell killing by M0 macrophages, Donor 161 [9]: 0.0013 nM | IC50 (nM), Ramos cell killing by M0 macrophages, Donor 233 [9]: 0.002 nM | IC50 (nM), Ramos cell killing by M2 macrophages, Donor 100 [10]: 0.001 nM | IC50 (nM), Ramos cell killing by M2 macrophages, Donor 233 [10]: 0.003 nM | IC50 (nM), killing of endogenous B cells by PBMCs, Donor 234 [11]: 0.0154 nM | EC50 (read off the curve) [12]: ~900 pM
